Experimental data: patent US20230066984A1, “New Carbon Glycoside Glycosyltransferase and Use Thereof” (CAS Center for Excellence in Molecular Plant Sciences, priority 2020, published 2023)
Changes are numbered by the printed parent chain.

What was measured:
[1] = In vitro functional identification of C-glycosyltransferases by HPLC, phloretin as glycosyl receptor; type: biochemical; conditions: 0.1 mM phloretin, 0.3 mM UDP glucose, crude enzyme, 37° C., 2 h, HPLC (FIG. 1A)
Description: The recombinant plasmid was transformed into competent cells of Escherichia coli BL21 (DE3), and cultured overnight at 37° C. in solid LB medium (kanamycin 50 μg/mL). Single colony was transferred to a 2 mL LB liquid medium (containing 50 μg/ml kanamycin) and incubated overnight. The bacterial fluid was transferred to a new 100 ml LB liquid medium with antibiotics and incubated at 37° C. and 250 r/min until OD600 reached 0.5-0.6. The culture was cooled down to 16° C. in a water bath. Then inducer IPTG was added at a final concentration of 0.1 mM. The mixture was cultured at 16° C. for low temperature induction and 180 r/min for 20 h. The BL21(DE3) recombinant strain carrying the pET28a empty plasmid was used as a blank control, and the culture operation was the same as above. The bacteria were harvested by centrifugation (6000 r/min, 5 min), re-suspended in 1 mL of lysis buffer Buffer A (20 mM Tris-HCl, pH 8.0; 100 mM NaCl), and DNase was added to a final concentration of 5 μg/mL, Mg^2+ to a final concentration of 2 mM; protease inhibitor PMSF to a final concentration of 1 mM; the bacteria were incubated on ice for 30 min and then sonicated; refrigerated centrifugation (10,000 rpm, 30 min, 4° C.), filtered through a 0.2 µm filter membrane to obtain the supernatant crude enzyme solution, and added 20% glycerol for cryopreservation (−20° C.).
(§1) The in vitro enzyme catalytic assay system is 100 μL. The reaction system includes: 0.1 mM glycosyl receptor (phloretin or 2-hydroxynaringenin), 0.3 mM UDP glucose, 25 μL supernatant crude enzyme solution, and Buffer A is used to make up the volume to 100 μL, and react at 37° C. for 2 h. After the reaction was completed, an equal volume of methanol was added to terminate the reaction, and HPLC was used for product analysis. HPLC detection conditions: chromatographic column: reverse phase C18 column [SilGreen ODS column (ø 4.6×250 mm)], detection wavelength 280 nm; mobile phase: acetonitrile (0.1% formic acid)-water (0.1% formic acid) mixture gradient elution, with increased ratio from 5:95 to 100:0 within 0 to 20 min, and the flow rate was 1 mL/min.

[2] = substrate: O=C1C[C@@](O)(c2ccc(O)cc2)Oc2cc(O)cc(O)c21; test: in vitro kinetic parameters of C-glycosyltransferase PhCGT1 with 2-hydroxynaringenin (FIG. 5); type: biochemical; conditions: other: PhCGT1; substrate 2-hydroxynaringenin; 37.0 °C
Description: as §1
(§2) The Km value is the substrate concentration when the enzymatic reaction presents half of its maximum reaction rate, and the lower the Km value, the higher the enzymatic activity of the C-glycosyltransferase.

[3] = substrate: O=C1C[C@@](O)(c2ccc(O)cc2)Oc2cc(O)cc(O)c21; test: in vitro kinetic parameters of C-glycosyltransferase PgCGT1 with 2-hydroxynaringenin (FIG. 5); type: biochemical, henon bamboo (Phyllostachys glauca); conditions: other: PgCGT1; substrate 2-hydroxynaringenin; 37.0 °C
Description: as §1, §2

B1: TaCGT1-B: C-glycosyltransferase from wheat, SEQ ID NO: 9 (protein, listed as Triticum aestivum)
chain: MPTSGDGSGALPHVVLLPSAGMGHLVPFSRLAVSFSSSDHGCGVSVVTVLPTVSSAESAHLDALFGACPAVRRLDFHLARFDASEFPGADPFFLRFEAMRRSAPLLGPLLAGAGASALVTDIALASVVIPVARELRLPCYVLFTASAAMLSLCVHFPAYLDANAGGPVGDVDIPGVYRVPKASIPQALHHPEHLFTRQFVANGRELAKSDGLLVNSFDEFEPEAISALRDGSVAAGFPPVFSVGPLAPVSFSAGEPPENQADYMRWLEAQPTRSVVYVSFGSRKAISKDQLKELAVGLEASGHRFLWVVKSTVVDREDEAELSELLGEGFLERVHGRGMVTKGWVEQEEVLKQESIGLFISHCGWNSVTEAAANGLPVLAWPRFGDQRVNAGVVARSGLGVWEERWSWEGEEGVVSGENIAEKVKAVMADETVRNKAVSVQDAAAKAVADGGTSYRSLAQFVQRCRDLSVSK
[1]
  conversion of substrate phloretin to C-glycosylated product (Nothofagin): can convert the substrate phloretin to a product having a shorter retention time

B2: Phyllostachys edulis (moso bamboo) C-glycosyltransferase PhCGT1, SEQ ID NO: 1 (Phyllostachys edulis) (protein)
chain: MPTSGGRTGDRPHVILLPSAGMGHLVPFSRLAVALSSGHGCDVSVVAVLPTVSAAESRHLQGLLDASPAVRRLDLHLAPFDESEFPGADPFFLRFEAMRRSAPLLGPLLADTGASALVTDIALASVVIPVAKEIHLPCYVLFTASAAMLSFCAYFPTYLDTNAGRVVGDVDIPGVYRIPKASIPQALHDPNHLFTRQFVANGQDLAKADGVLVNTFDALELEAVTALRQGSVAAGFPPVFSVGPLVTVNLPAGEAAKESGNDYMYWLDAQPAQSVVYVSFGSRKAISRDQVRELAIGLEASGQPFLWVVKSTVVDRDDSAELSELLGEGFLERVQGQGFVTKAWVEQEEVLKHESIGLFISHCGWNSVTEAAASGVPVLAWPRFGDQRVNAGVVARGGLGVWVERWSWEGEEDVVSGEEIAEKVKAVMADETVRKKAASVGEAAVKEFADGGTSYRSLTEFVRRCRDLAVLD
notes: pET28a (pCZ86), E. coli BL21(DE3) in fermentation; A1 assay uses crude enzyme supernatant
[1]
  conversion of substrate phloretin to C-glycosylated product (Nothofagin): can convert the substrate phloretin to a product having a shorter retention time
[2]
  Km: 1.75 ± 0.66 µM

B3: Phyllostachys glauca (henon bamboo) C-glycosyltransferase PgCGT1, SEQ ID NO: 2 (Phyllostachys glauca) (protein)
chain: B2 chain with G6S, D10G, Q273R, D289N, I296V, P304R, G327D, Q337R, F339L, D413G
notes: A1 assay uses crude enzyme supernatant
[1]
  conversion of substrate phloretin to C-glycosylated product (Nothofagin): can convert the substrate phloretin to a product having a shorter retention time
[3]
  Km: 2.75 ± 0.75 µM
